Target: T1, human NT5E expressed on MDA-MB-231 cells (human) (UniProt P21589)
T1 sequence (looked up): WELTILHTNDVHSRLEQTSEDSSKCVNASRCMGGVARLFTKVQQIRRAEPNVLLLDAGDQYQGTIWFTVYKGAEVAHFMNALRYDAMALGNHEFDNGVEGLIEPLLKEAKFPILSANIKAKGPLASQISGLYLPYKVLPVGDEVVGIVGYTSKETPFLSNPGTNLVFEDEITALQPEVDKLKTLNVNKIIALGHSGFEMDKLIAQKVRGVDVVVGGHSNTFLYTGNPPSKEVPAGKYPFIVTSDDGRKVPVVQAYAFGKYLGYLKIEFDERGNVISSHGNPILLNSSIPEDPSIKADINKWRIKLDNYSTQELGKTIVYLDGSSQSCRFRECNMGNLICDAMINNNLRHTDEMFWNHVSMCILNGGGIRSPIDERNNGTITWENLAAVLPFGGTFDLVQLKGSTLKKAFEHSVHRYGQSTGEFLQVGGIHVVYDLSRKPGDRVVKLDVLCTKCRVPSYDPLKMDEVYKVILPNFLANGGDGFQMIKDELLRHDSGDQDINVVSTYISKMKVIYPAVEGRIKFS
Assay: cell-based or functional assay

IC50 of inhibition of NT5E on MDA-MB-231 cells, ATP: 1100 pM
IC50 of inhibition of NT5E on MDA-MB-231 cells, no ATP: 600 pM
Substance: BMS986179 IgG (antibody)
